Experimental data published in patent US20260042859A1 (Stanford University, published 2026).
Changes are numbered by the printed parent chain. Numbers in names are those of the source. Values belong to the binder of their own block, whether it stands above or below them.

Target: T1, human recombinant PILRa-Fc protein (human, UniProt Q9UKJ1 20-196, limits assumed)
T1 construct: Recombinant protein; also called human PILRa-Fc; not shown: Fc part
Test: flow cytometry, PILRa-Fc on Ramos cells expressing FLAG-SMAGP mutant, anti-human-IgG-PE secondary

T1 sequence (Q9UKJ1 20-196 limits assumed): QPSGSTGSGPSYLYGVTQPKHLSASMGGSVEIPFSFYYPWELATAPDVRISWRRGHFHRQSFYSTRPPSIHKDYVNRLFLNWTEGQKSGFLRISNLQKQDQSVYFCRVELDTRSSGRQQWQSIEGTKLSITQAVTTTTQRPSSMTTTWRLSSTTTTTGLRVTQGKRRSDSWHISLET

binding result: no binding
B1: N-terminus FLAG-tagged mutant SMAGP^T7A,T17A expressed on Ramos cells (other, UniProt Q0VAQ4 1-97, looked up)
chain: MTSLLTAPSPREELMTAPILQPTEALSPEDGASTALIAVVITVVFLTLLSVVILIFFYLYKNKGSYVTYEPTEGEPSAIVQMESDLAKGSEKEEYFI
notes: whole, on cells; Double glycosylation-site mutant; also called T7A and T17A double mutations on SMAGP; not shown: N-terminal FLAG tag

binding result: no binding
B2: N-terminus FLAG-tagged mutant SMAGP^T7A,S9A expressed on Ramos cells (other, UniProt Q0VAQ4 1-97, looked up)
chain: B1 chain with S9A, A17T
notes: whole, on cells; Double glycosylation-site mutant; not shown: N-terminal FLAG tag

binding result: no binding
B3: N-terminus FLAG-tagged mutant SMAGP^T6A,T7A expressed on Ramos cells (other, UniProt Q0VAQ4 1-97, looked up)
chain: B1 chain with T6A, A17T
notes: as for B2
